Biological target: T1, mouse HRt (hairless protein aa 490-1182) (Mus musculus, UniProt Q61645)
T1 construct: HR cDNA corresponding to the C-terminal half of HR protein (aa residues 490 to 1182, hereinafter HRt); expressed in transfected cells; host or cells: Saccharomyces cerevisiae PJ69-2A transformed with BD-HRt plasmid, mated with Y187 carrying the human brain cDNA library in pACT2
T1 sequence (Q61645 490-1182): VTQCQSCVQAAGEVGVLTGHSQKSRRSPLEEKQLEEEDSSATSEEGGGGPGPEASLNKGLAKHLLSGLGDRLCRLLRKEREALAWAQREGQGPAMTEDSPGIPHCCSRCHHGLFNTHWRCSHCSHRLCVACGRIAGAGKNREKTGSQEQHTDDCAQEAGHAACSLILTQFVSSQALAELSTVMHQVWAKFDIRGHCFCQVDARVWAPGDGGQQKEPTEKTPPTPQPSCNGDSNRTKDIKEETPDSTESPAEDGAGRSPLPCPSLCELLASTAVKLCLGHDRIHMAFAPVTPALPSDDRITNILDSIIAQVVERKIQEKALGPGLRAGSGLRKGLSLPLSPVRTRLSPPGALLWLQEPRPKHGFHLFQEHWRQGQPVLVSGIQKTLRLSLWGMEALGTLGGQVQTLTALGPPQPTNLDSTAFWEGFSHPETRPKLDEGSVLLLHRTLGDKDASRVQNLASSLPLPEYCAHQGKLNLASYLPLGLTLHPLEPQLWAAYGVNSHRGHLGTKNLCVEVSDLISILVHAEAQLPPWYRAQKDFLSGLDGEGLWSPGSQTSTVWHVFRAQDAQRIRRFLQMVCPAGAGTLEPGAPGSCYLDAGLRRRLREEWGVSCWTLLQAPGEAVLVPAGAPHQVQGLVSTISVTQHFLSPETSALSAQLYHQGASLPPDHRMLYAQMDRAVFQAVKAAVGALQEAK
Assay: Yeast two-hybrid screen of BD-HRt against human brain cDNA library in AD vector, lacZ coloration on QDO-Xgal plates
Format: cell-based
Settings: BD-HRt(mouse) x human brain cDNA library in AD-vector
Description: The present example provides for Hairless Protein (HR) interacting partners (HR-IP) using the yeast two-hybrid technology. […] Yeast cells expressing BD-HRt are mated with yeast cells pretransformed with human brain cDNA library in the activation domain (AD) vector.
Cloning of HRt into GAL4 binding domain (BD) yeast two-hybrid (Y2H) vector: The HRt insert from pET32a-HRt is excised as an Eco RI-Xho I fragment (there is a unique Xho I site just adjacent to HRt insert) and inserted at the Eco RI-Sal I sites of Y2H-BD vector pGBKT7 (Catalog No. K1612-B; a component of Matchmaker two-hybrid System 3 (Catalog No. K1612-1) BD Biosciences Clontech, Palo Alto, Calif.) to obtain pGBKT7-HRt in which HRt is fused in-frame to GAL 4 DNA BD (this plasmid is also designated BD-HRt).
Pretransformed human brain […] cDNA Library Screen for HRt interaction partners: Pretransformed human brain […] high-complexity GAL4 cDNA library that has already been amplified and introduced into yeast strain Y187 (MATα) is used to screen for HRt interacting proteins. […] The library host strain Y187 provides a third reporter gene (lacZ) for optional quantification of signal strength. The protocol as described in Clontech user manual (PT3183-1) is used. Briefly, the library is mixed with PJ69-2A strain that has been transformed with the BD-HRt plasmid in YPD medium containing adenine hemisulfate (0.004%) and kanamycin (0.005%) and incubated for 20-24 h at 30° C. The next day, the mating mixture is plated on Leu, Trp, His TDO that selects for two-hybrid interactions, and then the positive clones are screened for growth on Leu, Trp, His, Ade QDO, which is a more stringent condition for interaction. Colonies that grew well on QDO are also screened for lacZ expression by streaking on QDO-Xgal plates. Based on a visual assessment of colonies for the intensity of blue color, the clones are classified into high (H), medium (M), low (L) or very low (VL) categories.
The positive clones are expected to contain an AD-IP (interacting partner) that interacts with BD-HRt. To characterize IP, the sequence of IP is determined and matched to the human genome database. For this purpose, total DNA is isolated from the positive clones and PCR amplified with […] AD LD (long distance)-insert screening amplimers (Catalog No.9103-1; BD Biosciences Clontech, PaloAlto, Calif.). Reaction is conducted in 50 μl volume for 35 cycles using the conditions recommended with the Advantage2 PCR kit (Catalog No. K1910-1; BD Biosciences Clontech, PaloAlto, Calif.).

B1: Human VPS41: human HRt interacting partner, GenBank U87309, SEQ ID NO:46/47 (protein, UniProt P49754 1-854, looked up)
Vacuolar protein …: MAEAEEQETGSLEESTDESEEEESEEEPKLKYERLSNGVTEILQKDAASCMTVHDKFLALGTHYGKVYLLDVQGNITQKFDVSPVKINQISLDESGEHMGVCSEDGKVQVFGLYSGEEFHETFDCPIKIIAVHPHFVRSSCKQFVTGGKKLLLFERSWMNRWKSAVLHEGEGNIRSVKWRGHLIAWANNMGVKIFDIISKQRITNVPRDDISLRPDMYPCSLCWKDNVTLIIGWGTSVKVCSVKERHASEMRDLPSRYVEIVSQFETEFYISGLAPLCDQLVVLSYVKEISEKTEREYCARPRLDIIQPLSETCEEISSDALTVRGFQENECRDYHLEYSEGESLFYIVSPRDVVVAKERDQDDHIDWLLEKKKYEEALMAAEISQKNIKRHKILDIGLAYINHLVERGDYDIAARKCQKILGKNAALWEYEVYKFKEIGQLKAISPYLPRGDPVLKPLIYEMILHEFLESDYEGFATLIREWPGDLYNNSVIVQAVRDHLKKDSQNKTLLKTLAELYTYDKNYGNALEIYLTLRHKDVFQLIHKHNLFSSIKDKIVLLMDFDSEKAVDMLLDNEDKISIKKVVEELEDRPELQHVYLHKLFKRDHHKGQRYHEKQISLYAEYDRPNLLPFLRDSTHCPLEKALEICQQRNFVEETVYLLSRMGNSRSALKMIMEELHDVDKAIEFAKEQDDGELWEDLILYSIDKPPFITGLLNNIGTHVDPILLIHRIKEGMEIPNLRDSLVKILQDYNLQILLREGCKKILVADSLSLLKKMHRTQMKGVLVDEENICESCLSPILPSDAAKPFSVVVFHCRHMFHKECLPMPSMNSAAQFCNICSAKNRGPGSAILEMKK
In the case of B1, the “XGAL (rate and intensity of coloration of colonies on Xgal)” value (from here on “XGAL”) is reported as “M (M = Medium blue in 3-5 days)”.

B2: Human PACE4 (SPC4): human HRt interacting partner, GenBank AB001899, SEQ ID NO:69 (protein, UniProt P29122 150-969, looked up)
Proprotein convertase …: QVRSDPQALYFNDPIWSNMWYLHCGDKNSRCRSEMNVQAAWKRGYTGKNVVVTILDDGIERNHPDLAPNYDSYASYDVNGNDYDPSPRYDASNENKHGTRCAGEVAASANNSYCIVGIAYNAKIGGIRMLDGDVTDVVEAKSLGIRPNYIDIYSASWGPDDDGKTVDGPGRLAKQAFEYGIKKGRQGLGSIFVWASGNGGREGDYCSCDGYTNSIYTISVSSATENGYKPWYLEECASTLATTYSSGAFYERKIVTTDLRQRCTDGHTGTSVSAPMVAGIIALALEANSQLTWRDVQHLLVKTSRPAHLKASDWKVNGAGHKVSHFYGFGLVDAEALVVEAKKWTAVPSQHMCVAASDKRPRSIPLVQVLRTTALTSACAEHSDQRVVYLEHVVVRTSISHPRRGDLQIYLVSPSGTKSQLLAKRLLDLSNEGFTNWEFMTVHCWGEKAEGQWTLEIQDLPSQVRNPEKQGKLKEWSLILYGTAEHPYHTFSAHQSRSRMLELSAPELEPPKAALSPSQVEVPEDEEDYTAQSTPGSANILQTSVCHPECGDKGCDGPNADQCLNCVHFSLGSVKTSRKCVSVCPLGYFGDTAARRCRRCHKGCETCSSRAATQCLSCRRGFYHHQEMNTCVTLCPAGFYADESQKNCLKCHPSCKKCVDEPEKCTVCKEGFSLARGSCIPDCEPGTYFDSELIRCGECHHTCGTCVGPGREECIHCAKNFHFHDWKCVPACGEGFYPEEMPGLPHKVCRRCDENCLSCAGSSRNCSRCKTGFTQLGTSCITNHTCSNADETFCEMVKSNRLCERKLFIQFCCRTCLLAG
B2 was tested, and the “XGAL” value was “L (L = Low blue in 5-7 days)”.

B3: Human cDNA FLJ20109 fis clone COL05067: human HRt interacting partner, GenBank BC009472, SEQ ID NO:72/73 (protein, listed as Homo sapiens)
chain: VASPPVPCSAAFRSLHISVARDLKMRLHLLLLLALCGAGTTAAELSYSLRGNWSICNGNGSLELPGAVPGCVHSALFQ
In the case of B3, the “XGAL” value is reported as “L (L = Low blue in 5-7 days)”.

B4: Human splicing factor (CC1.4): human HRt interacting partner, GenBank L10911, SEQ ID NO:59/60 (protein, listed as Homo sapiens)
chain: EFAAASTTAPVIIFVSKMFAVDAKALPQNKPRPLTQEEIAQRRERARQRHAEKLAAAQGQAPLEPTQDGSAIETCPKGEEPRGDEQQVESMTPKPVLQEENNQESFIAFARVFSGVARRGKKIFVLGPKYSPLEFLRRVPLGFSAPPDGLPQVPHMAYCALENLYLLMGRELEYLEEVPPGNVLGIGGLQDFVLKSATLCSLPSCPPFIPLNFEATPIVRVAVEPKHPSEMPQLVKG
B4 was tested, and the “XGAL” value was “L/VL”.

B5: Human alpha-tubulin: human HRt interacting partner, GenBank AF141348, SEQ ID NO:50 (protein, listed as Homo sapiens)
chain: QSLGLLDQNPHLAQELRPQIQELLHSEHLGPSELEAPAPGGSSEDKGGLQPPDSKDADTPMTLPKGSTEQDAASPEKEKMNPLEQYERKVNASVPRGFPFHSSEIQRDELAPAGTGVSREAVSGLLIMGAGGGSLIVLSMLLLRRKKPYGAISHGVVEVDPMLTLEEQQLRELQRHGYENPTYRFLEERP
With B5 the “XGAL” value was “L (L = Low blue in 5-7 days)”.

B6: Human neuronal membrane glycoprotein M6b1: human HRt interacting partner, GenBank AF016004, SEQ ID NO:56 (protein, UniProt Q13491 1-265, looked up)
Neuronal membrane …: MKPAMETAAEENTEQSQERKGCFECCIKCLGGVPYASLVATILCFSGVALFCGCGHVALAGTVAILEQHFSTNASDHALLSEVIQLMQYVIYGIASFFFLYGIILLAEGFYTTSAVKELHGEFKTTACGRCISGMFVFLTYVLGVAWLGVFGFSAVPVFMFYNIWSTCEVIKSPQTNGTTGVEQICVDIRQYGIIPWNAFPGKICGSALENICNTNEFYMSYHLFIVACAGAGATVIALLIYMMATTYNYAVLKFKSREDCCTKF
B6 was tested, and the “XGAL” value was “L (L = Low blue in 5-7 days)”.

B7: Human MDC15: human HRt interacting partner, GenBank U46005, SEQ ID NO:77 (protein, listed as Homo sapiens)
chain: LGLQWHADGRLTKKLNGLADLEACIKTLHGQGFSQPSLTTLTAFSVEGCLQEHCVILIQSW
In the case of B7, the “XGAL” value is reported as “L (L = Low blue in 5-7 days)”.

B8: Human transcription factor Y, gamma: human HRt interacting partner, GenBank BC005003, SEQ ID NO:53/54 (protein, UniProt Q13952 1-458, looked up)
Nuclear transcription factor …: MSTEGGFGGTSSSDAQQSLQSFWPRVMEEIRNLTVKDFRVQELPLARIKKIMKLDEDVKMISAEAPVLFAKAAQIFITELTLRAWIHTEDNKRRTLQRNDIAMAITKFDQFDFLIDIVPRDELKPPKRQEEVRQSVTPAEPVQYYFTLAQQPTAVQVQGQQQGQQTTSSTTTIQPGQIIIAQPQQGQTTPVTMQVGEGQQVQIVQAQPQGQAQQAQSGTGQTMQVMQQIITNTGEIQQIPVQLNAGQLQYIRLAQPVSGTQVVQGQIQTLATNAQQGQRNASQGKPRRCLKETLQITQTEVQQGQQQFSQFTDGQRNSVQQARVSELTGEAEPREVKATGNSTPCTSSLPTTHPPSHRAGASCVCCSQPQQSSTSPPPSDALQWVVVEVSGTPNQLETHRELHAPLPGMTSLSPLHPSQQLYQIQQVTMPAGQDLAQPMFIQSANQPSDGQAPQVTGD
For B8, the “XGAL” value was “L (L = Low blue in 5-7 days)”.
